Source: paper PMC3171513

Legend:
[1] = target: His-tagged wild-type cytochrome bc1 complex from Paracoccus denitrificans (Paracoccus denitrificans) (UniProt P05417)
[2] = target: wild-type cytochrome bc1 complex from Paracoccus denitrificans (Paracoccus denitrificans) (UniProt P05417)

steady-state reduction of cytochrome c by bc1 complex with decylubiquinol, KM [1]: 3.4 µM | steady-state reduction of cytochrome c by bc1 complex with decylubiquinol, kCAT [1]: 328 s⁻¹ | steady-state reduction of cytochrome c by bc1 complex with decylubiquinol, KM [2]: 2.3 µM | steady-state reduction of cytochrome c by bc1 complex with decylubiquinol, kCAT [2]: 273 s⁻¹
Substance: horse heart cytochrome c (from UniProt P00004 1-105) (natural protein)
